In patent publication US20260015420A1 (CENTESSA PHARMACEUTICALS UK, published 2026):
Read-outs that look alike come from different tables or passages of the source. Blank lines part the entries; values can stand above or below the binder they belong to.

Key:
human CD47-Fc [1] = biological target: T1, human CD47-Fc (human, UniProt Q08722 19-139); assay: direct ELISA, coated human CD47-Fc, OD450
T1 construct: also called hCD47; human CD47-Fc protein; not shown: Fc part

human CD47-Fc [2] = biological target: T1, human CD47-Fc; assay: HTRF competition with labelled h5F9G4 IgG1 (m11) for human CD47-Fc, 665/615 ratio
[3] = biological target: T2, cynomolgus monkey CD47-Fc (cynomolgus monkey, UniProt Q08722 19-139 (human entry), limits assumed); assay: direct ELISA, coated cyno CD47-Fc, OD450
T2 construct: also called cCD47; cyno CD47-Fc; not shown: Fc part
T2 chain: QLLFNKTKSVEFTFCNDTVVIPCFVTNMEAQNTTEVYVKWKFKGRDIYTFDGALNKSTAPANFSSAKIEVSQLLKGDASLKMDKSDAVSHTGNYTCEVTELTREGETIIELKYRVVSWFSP

[4] = biological target: T3, Cyno CD47 (Biacore steady state analysis) (cynomolgus monkey, UniProt Q08722 19-139 (human entry), limits assumed); assay: Biacore SPR, steady state affinity, monomeric Fab
T3 construct: The construct on the Biacore chip is not described (possibly CD47-Fc)
T3 chain: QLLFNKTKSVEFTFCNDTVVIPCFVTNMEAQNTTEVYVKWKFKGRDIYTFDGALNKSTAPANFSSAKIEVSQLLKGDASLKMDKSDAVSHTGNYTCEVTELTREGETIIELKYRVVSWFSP

human CD47-Fc [5] = biological target: T1, human CD47-Fc; assay: direct ELISA, coated human CD47-Fc, OD450; remark: listed apart in the source
human CD47-Fc [6] = biological target: T1, human CD47-Fc; assay: HTRF epitope competition; competitor Tb-labelled h5F9G4 IgG1 on biotinylated human CD47-Fc
human CD47-Fc [7] = biological target: T1, human CD47-Fc; assay: competition ELISA: human CD47-Fc binding to plate-bound human SIRPa-Fc, % binding
[8] = biological target: T4, cynomolgus monkey CD47 on cyno CD47-transfected CHO-K1 cells (cynomolgus monkey, UniProt Q08722 19-323 (human entry)); assay: flow cytometry, CHO-K1 cells transfected with cyno CD47, MFI
T4 construct: CHO-K1 cells stably transfected with cyno CD47 full-length cDNA; also called cyno CD47+ cells; cyno CD47+CHO-K1
T4 chain: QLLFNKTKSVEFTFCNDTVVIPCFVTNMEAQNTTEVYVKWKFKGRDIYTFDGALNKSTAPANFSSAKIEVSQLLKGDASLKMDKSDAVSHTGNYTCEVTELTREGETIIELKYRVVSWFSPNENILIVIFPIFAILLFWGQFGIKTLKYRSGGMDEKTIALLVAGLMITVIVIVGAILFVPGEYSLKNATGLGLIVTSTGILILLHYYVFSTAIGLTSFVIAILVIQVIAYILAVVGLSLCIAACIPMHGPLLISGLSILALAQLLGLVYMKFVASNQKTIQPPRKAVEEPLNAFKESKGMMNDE

human CD47-Fc [9] = biological target: T1, human CD47-Fc; assay: HTRF competition with labelled h5F9G4 IgG1 (m11) for human CD47-Fc, 665/615 ratio; remark: listed apart in the source
human CD47-Fc [10] = biological target: T1, human CD47-Fc; assay: competition ELISA: human CD47-Fc binding to plate-bound human SIRPa-Fc, OD450
[11] = biological target: T2, cynomolgus monkey CD47-Fc; assay: competition ELISA: cyno CD47-Fc binding to plate-bound human SIRPa-Fc, OD450

B1: F-E5, human IgG1null (antibody, V domains shown)
VH: EVQLVQSGAEVKKPGESLKISCKGSGYSFTNYNIHWVRQMPGKGLEWMGTIYPGNSDTSYNPKFQGQVTISADKSISTAYLQWSSLKASDTAMYYCARGGKRAMDYWGQGTLVTVSS
VL: DIVMTQSPLSLPVTPGEPASISCRSSQSLLHSNGNTYLGWYLQKPGQSPQLLIYKGSNRFSGVPDRFSGSGSGTDFTLKISRVEAEDVGVYYCMQASQVPYTFGQGTKLEIK
notes: framework limits derived from the Unified CDR definitions; IgG1null; also called Clone F-E5
EC50 (read off the curve) (human CD47-Fc [1]): ~0.06 mg/L
IC50 (read off the curve) (human CD47-Fc [2]): ~4 mg/L
binding result [3]: binds

B2: FAB VH1.8/1.6DI (Fab, V domains shown)
VH: QVQLVQSGAEVKKPGASVKVSCKASGYTFTNYAMHWVRQAPGQRLEWMGTIYPGNDDTKYNQKFQGRVTITADTSASTAYMELSSLRSEDTAVYYCARGGFRAMDYWGQGTLVTVSS
VL: DIVMTQSPLSLPVTPGEPASISCRSSQSLLHSNANTYLGWYLQKPGQSPQLAIYKGSNRFSGVPDRFSGSGSGTDFTLKISRVEAEDAGVYYCFQASHVPYTFGQGTKLEIK
notes: Fab expressed as soluble monomer; VL carries the two deimmunising alanine substitutions; also called VH1.8/VL1.6-DI Fab
Kd [4]: 0.0278 µM

B6: FAB VH1.8/1.1 (Fab, V domains shown)
VH: QVQLVQSGAEVKKPGASVKVSCKASGYTFTNYAMHWVRQAPGQRLEWMGTIYPGNDDTKYNQKFQGRVTITADTSASTAYMELSSLRSEDTAVYYCARGGFRAMDYWGQGTLVTVSS
VL: DIVMTQSPLSLPVTPGEPASISCRSSQSLLHSNGNTYLGWYLQKPGQSPQLLIYKGSNRFSGVPDRFSGSGSGTDFTLKISRVEAEDVGVYYCFQASHVPYTFGQGTKLEIK
notes: Fab expressed as soluble monomer; also called VH1.8/VL1.1 Fab
Kd [4]: 0.0179 µM

B8: VH1.8/VL1.2, human IgG1null (antibody, V domains shown)
VH: QVQLVQSGAEVKKPGASVKVSCKASGYTFTNYAMHWVRQAPGQRLEWMGTIYPGNDDTKYNQKFQGRVTITADTSASTAYMELSSLRSEDTAVYYCARGGFRAMDYWGQGTLVTVSS
VL: DIVMTQSPLSLPVTPGEPASISCRSSQSLLHSNGNTYLGWYLQKPGQSPQLLIYKGSNRFSGVPDRFSGSGSGTDFTLKISRVEAEDVGVYYCFQASQVPYTFGQGTKLEIK
notes: IgG1null; also called Clone VH1.8/VL1.2
EC50 (read off the curve) (human CD47-Fc [5]): ~0.06 mg/L
IC50 (human CD47-Fc [6]): 0.586 mg/L
binding result [8]: binds

B9: VH1.8/VL1.3, human IgG1null (antibody, V domains shown)
VH: QVQLVQSGAEVKKPGASVKVSCKASGYTFTNYAMHWVRQAPGQRLEWMGTIYPGNDDTKYNQKFQGRVTITADTSASTAYMELSSLRSEDTAVYYCARGGFRAMDYWGQGTLVTVSS
VL: DIVMTQSPLSLPVTPGEPASISCRSSQSLLHSNANTYLGWYLQKPGQSPQLLIYKGSNRFSGVPDRFSGSGSGTDFTLKISRVEAEDVGVYYCFQASQVPYTFGQGTKLEIK
notes: IgG1null; also called Clone VH1.8/VL1.3
EC50 (read off the curve) (human CD47-Fc [5]): ~0.06 mg/L
IC50 (human CD47-Fc [6]): 0.928 mg/L
IC50 (read off the curve) (human CD47-Fc [7]): ~0.4 mg/L
binding result [8]: binds

B10: FAB VH1.8/1.6 (Fab, V domains shown)
VH: QVQLVQSGAEVKKPGASVKVSCKASGYTFTNYAMHWVRQAPGQRLEWMGTIYPGNDDTKYNQKFQGRVTITADTSASTAYMELSSLRSEDTAVYYCARGGFRAMDYWGQGTLVTVSS
VL: DIVMTQSPLSLPVTPGEPASISCRSSQSLLHSNANTYLGWYLQKPGQSPQLLIYKGSNRFSGVPDRFSGSGSGTDFTLKISRVEAEDVGVYYCFQASHVPYTFGQGTKLEIK
notes: Fab expressed as soluble monomer; also called VH1.8/VL1.6 Fab
Kd [4]: 0.0259 µM

B11: D6 IgG, human IgG1null (antibody, V domains shown)
VH: EVQLVQSGAEVKKPGESLKISCKGSGYSFTNYNIHWVRQMPGKGLEWMGTIYPGNSDTSYNPSFQGQVTISADKSISTAYLQWSSLKASDTAMYYCARGGVRAMDYWGQGTLVTVSS
VL: DIVMTQSPLSLPVTPGEPASISCRSSQSLLHSNGNTYLGWYLQKPGQSPQLLIYKGSNRFSGVPDRFSGSGSGTDFTLKISRVEAEDVGVYYCMQASQVPYTFGQGTKLEIK
notes: The text prints both D6 and D-A6 for what reads as the same clone; IgG1null; also called D-A6 IgG; Clone D6
IC50 (read off the curve) (human CD47-Fc [9]): ~4 mg/L
EC50 (read off the curve) (human CD47-Fc [1]): ~0.09 mg/L
binding result [3]: binds

B12: VH1.8/VL1.1, human IgG1null (antibody, V domains shown)
VH: QVQLVQSGAEVKKPGASVKVSCKASGYTFTNYAMHWVRQAPGQRLEWMGTIYPGNDDTKYNQKFQGRVTITADTSASTAYMELSSLRSEDTAVYYCARGGFRAMDYWGQGTLVTVSS
VL: DIVMTQSPLSLPVTPGEPASISCRSSQSLLHSNGNTYLGWYLQKPGQSPQLLIYKGSNRFSGVPDRFSGSGSGTDFTLKISRVEAEDVGVYYCFQASHVPYTFGQGTKLEIK
notes: IgG1null (L234A/L235A/G237A); also called Clone VH1.8/VL1.1
EC50 (read off the curve) (human CD47-Fc [5]): ~0.06 mg/L
IC50 (human CD47-Fc [6]): 0.459 mg/L
binding result [8]: binds

B13: E-A1, human IgG1null (antibody, V domains shown)
VH: EVQLVQSGAEVKKPGESLKISCKGSGYSFTNYNIHWVRQMPGKGLEWMGTIYPGDSDTRYNPKFQGQVTISADKSISTAYLQWSSLKASDTAMYYCARGGYRAEDYWGQGTLVTVSS
VL: DIVMTQSPLSLPVTPGEPASISCRSSQSLLHSNGNTYLGWYLQKPGQSPQLLIYKGSNRFSGVPDRFSGSGSGTDFTLKISRVEAEDVGVYYCMQGSHVPYTFGQGTKLEIK
notes: IgG1null; also called Clone E-A1
IC50 (read off the curve) (human CD47-Fc [2]): ~1 mg/L
binding result [3]: binds

B14: IGHV5-51 graft IgG (IGKV2-28/IGHV5-51 graft), human IgG1null (antibody, V domains shown)
VH: EVQLVQSGAEVKKPGESLKISCKGSGYSFTNYNMHWVRQMPGKGLEWMGTIYPGNDDTSYNQKFQGQVTISADKSISTAYLQWSSLKASDTAMYYCARGGYRAMDYWGQGTLVTVSS
VL: DIVMTQSPLSLPVTPGEPASISCRSSQSIVYSNGNTYLGWYLQKPGQSPQLLIYKVSNRFSGVPDRFSGSGSGTDFTLKISRVEAEDVGVYYCFQGSHVPYTFGQGTKLEIK
notes: IgG1null; also called IGHV5-51 grafted IgG; IGHV5-51-grafted IgG
IC50 (read off the curve) (human CD47-Fc [9]): ~0.3 mg/L
IC50 (read off the curve) (human CD47-Fc [10]): ~0.004 µM
IC50 (read off the curve) [11]: ~0.005 µM

Now from value to binder:

EC50 (read off the curve) (human CD47-Fc [5]): ~0.06 mg/L
IC50 (human CD47-Fc [6]): 2.94 mg/L
IC50 (read off the curve) (human CD47-Fc [7]): ~2 mg/L
binding result [8]: binds
B3: VH1.8/VL1.4, human IgG1null (antibody, V domains shown)
VH: QVQLVQSGAEVKKPGASVKVSCKASGYTFTNYAMHWVRQAPGQRLEWMGTIYPGNDDTKYNQKFQGRVTITADTSASTAYMELSSLRSEDTAVYYCARGGFRAMDYWGQGTLVTVSS
VL: DIVMTQSPLSLPVTPGEPASISCRSSQSLLHSNAYNYLGWYLQKPGQSPQLLIYKGSNRFSGVPDRFSGSGSGTDFTLKISRVEAEDVGVYYCFQASQVPYTFGQGTKLEIK
notes: IgG1null; also called Clone VH1.8/VL1.4

EC50 (read off the curve) (human CD47-Fc [5]): ~0.06 mg/L
IC50 (human CD47-Fc [6]): 0.911 mg/L
IC50 (read off the curve) (human CD47-Fc [7]): ~0.4 mg/L
binding result [8]: binds
B4: VH1.8/VL1.5, human IgG1null (antibody, V domains shown)
VH: QVQLVQSGAEVKKPGASVKVSCKASGYTFTNYAMHWVRQAPGQRLEWMGTIYPGNDDTKYNQKFQGRVTITADTSASTAYMELSSLRSEDTAVYYCARGGFRAMDYWGQGTLVTVSS
VL: DIVMTQSPLSLPVTPGEPASISCRSSQSLLHSNAYNYLGWYLQKPGQSPQLLIYKGSNRFSGVPDRFSGSGSGTDFTLKISRVEAEDVGVYYCFQASHVPYTFGQGTKLEIK
notes: IgG1null; also called Clone VH1.8/VL1.5

binding result (human CD47-Fc [1]): binds
binding result [3]: binds
B5: F-G3, human IgG1null (antibody, V domains shown)
VH: EVQLVQSGAEVKKPGESLKISCKGSGYSFTNYNIHWVRQMPGKGLEWMGTIYPGNSDTSYNHKFQGQVTISADKSISTAYLQWSSLKASDTAMYYCARGGNRAEDYWGQGTLVTVSS
VL: DIVMTQSPLSLPVTPGEPASISCRSSQSLLHSNGNTYLGWYLQKPGQSPQLLIYKGSNRFSGVPDRFSGSGSGTDFTLKISRVEAEDVGVYYCMQASQVPYTFGQGTKLEIK
notes: IgG1null; also called clone F-G3

EC50 (read off the curve) (human CD47-Fc [5]): ~0.06 mg/L
IC50 (human CD47-Fc [6]): 0.56 mg/L
IC50 (read off the curve) (human CD47-Fc [7]): ~0.3 mg/L
binding result [8]: binds
B7: VH1.8/VL1.6, human IgG1null (antibody, V domains shown)
VH: QVQLVQSGAEVKKPGASVKVSCKASGYTFTNYAMHWVRQAPGQRLEWMGTIYPGNDDTKYNQKFQGRVTITADTSASTAYMELSSLRSEDTAVYYCARGGFRAMDYWGQGTLVTVSS
VL: DIVMTQSPLSLPVTPGEPASISCRSSQSLLHSNANTYLGWYLQKPGQSPQLLIYKGSNRFSGVPDRFSGSGSGTDFTLKISRVEAEDVGVYYCFQASHVPYTFGQGTKLEIK
notes: IgG1null; also called Clone VH1.8/VL1.6
